From paper doi:10.1101/2022.06.02.494603 come the findings set out here.

In the assay the target is optineurin, C-terminal myc-FLAG-tagged, Q96CV9. Nature of the assay: co-IP. Particulars: remark: other sources report otherwise.

Substitutions are numbered along the chain they refer to. In names and notes the source's numbering stands.

Chain of optineurin, C-terminal myc-FLAG-tagged, Q96CV9 (Q96CV9 whole entry): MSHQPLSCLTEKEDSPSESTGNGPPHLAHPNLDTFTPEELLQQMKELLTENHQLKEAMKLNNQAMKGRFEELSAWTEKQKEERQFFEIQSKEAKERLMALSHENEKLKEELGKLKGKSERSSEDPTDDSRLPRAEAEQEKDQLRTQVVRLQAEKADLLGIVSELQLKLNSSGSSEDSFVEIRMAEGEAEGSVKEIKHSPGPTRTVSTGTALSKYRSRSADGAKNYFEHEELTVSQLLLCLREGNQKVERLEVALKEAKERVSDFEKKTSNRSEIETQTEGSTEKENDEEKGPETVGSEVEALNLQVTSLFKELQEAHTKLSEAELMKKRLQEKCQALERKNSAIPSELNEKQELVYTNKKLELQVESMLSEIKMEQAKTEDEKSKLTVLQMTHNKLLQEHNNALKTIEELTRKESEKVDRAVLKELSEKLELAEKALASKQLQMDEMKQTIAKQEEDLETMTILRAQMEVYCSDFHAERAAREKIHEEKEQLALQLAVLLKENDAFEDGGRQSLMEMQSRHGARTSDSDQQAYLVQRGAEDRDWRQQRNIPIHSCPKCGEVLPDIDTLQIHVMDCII

B1: TBK1 p.E696K, untagged, Q9UHD2 1-729 (natural protein)
chain: MQSTSNHLWLLSDILGQGATANVFRGRHKKTGDLFAIKVFNNISFLRPVDVQMREFEVLKKLNHKNIVKLFAIEEETTTRHKVLIMEFCPCGSLYTVLEEPSNAYGLPESEFLIVLRDVVGGMNHLRENGIVHRDIKPGNIMRVIGEDGQSVYKLTDFGAARELEDDEQFVSLYGTEEYLHPDMYERAVLRKDHQKKYGATVDLWSIGVTFYHAATGSLPFRPFEGPRRNKEVMYKIITGKPSGAISGVQKAENGPIDWSGDMPVSCSLSRGLQVLLTPVLANILEADQEKCWGFDQFFAETSDILHRMVIHVFSLQQMTAHKIYIHSYNTATIFHELVYKQTKIISSNQELIYEGRRLVLEPGRLAQHFPKTTEENPIFVVSREPLNTIGLIYEKISLPKVHPRYDLDGDASMAKAITGVVCYACRIASTLLLYQELMRKGIRWLIELIKDDYNETVHKKTEVVITLDFCIRNIEKTVKVYEKLMKINLEAAELGEISDIHTKLLRLSSSQGTIETSLQDIDSRLSPGGSLADAWAHQEGTHPKDRNVEKLQVLLNCMTEIYYQFKKDKAERRLAYNEEQIHKFDKQKLYYHATKAMTHFTDECVKKYEAFLNKSEEWIRKMLHLRKQLLSLTNQCFDIEEEVSKYQEYTNELQETLPQKMFTASSGIKHTMTPIYPSSNTLVEMTLGMKKLKEKMEGVVKELAENNHILERFGSLTMDGGLRNVDCL
B1 gave a TBK1 bound to OPTN relative to wild type (relative to TBK1 WT) of 0.02.

B2: TBK1 G217R, untagged, Q9UHD2 1-729 (natural protein)
chain: B1 chain with G217R, K696E
B2 came in with a TBK1 bound to OPTN relative to wild type (relative to TBK1 WT) of 0.27.
